The supplement of paper PMC9170038

Key:
MS2 coat protein [1] = experiment: apparent KD of MS2 coat protein; designed switch direction (-1 OFF switch, 1 ON switch): 1; higher = weaker reporter binding; conditions: Eterna round: R98
Protocol: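 RNA-MaP: designed FMN/MS2 RNA switches (84 nt design region) are transcribed on-chip within common flanks and titrated with SNAP-549-labelled MS2 coat protein (about 1-3000 nM) in 100 mM Tris pH 7.5, 80 mM KCl, 4 mM MgCl2, without or with 200 uM FMN. Median apparent KD per design; activation ratio = KD,OFF / KD,ON.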

MS2 coat protein [2] = experiment: apparent KD of MS2 coat protein, switch ON state; designed switch direction (-1 OFF switch, 1 ON switch): 1; higher = weaker reporter binding; conditions: FMN input: 0 or 200 uM; Eterna round: R93 (includes R88 designs)
How it was run: (§1)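 The buffer was 100 mM Tris-HCl pH 7.5 with 80 mM KCl and 4 mM MgCl2, used without or with constant ligand. In it, RNA switches transcribed on-chip from Illumina sequencing clusters were titrated with SNAP-549-labelled MS2 coat protein in twofold steps from 0.7 or 1.5 nM to 3 µM. Apparent KD for each design is the median of its normalised cluster binding-curve fits.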

MS2 coat protein [3] = experiment: apparent KD of MS2 coat protein, switch OFF state (with FMN for OFF switches, without FMN for ON switches); designed switch direction (-1 OFF switch, 1 ON switch): 1; higher = weaker reporter binding; conditions: FMN input: 0 or 200 uM; Eterna round: R93 (includes R88 designs)
How it was run: as §1

Sequence	apparent KD of MS2 coat protein (MS2 coat protein [1]; input ligand: FMN 200 uM) [nM]	apparent KD of MS2 coat protein (MS2 coat protein [1]; input ligand: none) [nM]	apparent KD of MS2 coat protein (MS2 coat protein [2]) [nM]	apparent KD of MS2 coat protein (MS2 coat protein [3]) [nM]
AAAAUAAAAUAAAUUAACAUGAGGAUCACCCAUGUCGCUAGACAGGAUAUAUAAAAUAAAAUAAAGUAGAAGGGUCAAAUAAAA [LRO001_SS NG 3]	88.2	114	–	–
AAAAUAUAAUAUAUUAACAUGAGGAUCACCCAUGUCGCUAGACAGGAUAUAUAAAAUAAAAUAAAGUAGAAGGGUCAUAUAAUA [LRO003_SS NG 3]	93.9	56.4	–	–
AAACUUAUCACAGGAUAUUCCUGAGGAUGCCAGGGAGAAGGGUGACUCUUGGGACAUGAGGAUCACCCAUGUUCUGUGGGAAAA [Xeusdior]	190	182	–	–
ACGUUAAUUCGAGGAUAUCGGUGAUUUAUAUUACGAGAAGGCGAUAAUUGUGAACAACUUAUAGACAUGAGGAUCACCCAUGUA [JR_SSNG1_Sub065]	21.3	28.6	–	–
AGCGGUAGGACAGGAUAUGGUGACUUCAAGCGGCCAGAAGGGUCCCGACAUGAGGAUCACCCAUGUCUUCCAGGCAGGAAGCGC [Bequques]	443	239	–	–
CACGUCCUCACAGGAUAUGCUGGACUUUGUCCAGCAGAAGGGUGAAACAUGAGGAUCACCCAUGUAAGGACGUGUAUAUUUAAU [Denovo 21]	1470	187	–	–
CCGAAUGUCACAGGAUAUGGUCCGGGCACGCGACCAGAAGGGUGAUCUCACAUGAGGAUCACCCAUGUGUAGGCGUUAGACUAC [Dierata]	191	96.6	–	–
CGGAUCGCAUGAGGAUAUGGUCAGCUUUGCUGACCAGAAGGCAUGUCAAUAGACAUGAGGAUCACCCAUGUAGUUAAGAUCCGA [Mat - Same State NG 1 - JL Mod - D17]	45.5	644	–	–
GGGUGGGUCACAGGAUAUCCCGUGAGCCACAUGAGGAUCACCCAUGUAUCACGACGAAAGAAGAAGGAGAAGGGUGACCCUGAU [Tibiiste]	29.8	40.7	–	–
GGUCCAACAUGAGGAUAUGGCACCUUAUUGGUGCCAGAAGGCGUGUCGAUAGACAUGAGGAUCACCCAUGUAAUAAAUUGGACC [SameState #23 NG1]	138	467	–	–
GUAACAUGAGGAUCACCCAUGUCGUGCUAGAUGAGUUCUGGUGAGGAUAUACAUGGUAAAUAACUGUAGAAGGCACUGGGUACA [SameState #67 NG3]	44.7	133	–	–
GUCGAAUUCUUAGGAUAUCGAGUGGAAUACACUCGAGAAGGAAGAUAUACCUGAGGAUCACCCAGGUUAAACUGAACGACAAUA [Same State NG1 - A3C, U17G Submission 7C]	17.6	17.6	–	–
UAAUAAUAAACCAAGGAUAUGGAGUAUAGCACAUGAGGAUCACCCAUGUGUAGCGUGGGUUAGUACCAGAAGGUGGAGUGAAAUG [JR_SS002_Sub1001]	–	–	87.8	82.8
UGAAGACAUGAGGAUCACCCAUGUGGGAAUAUGGGAGGAUAUACAAAGACGAGAGUCAGAGUAGAAGGCCUAGGAC [salish99-ss1-98]	–	–	47.9	133
UGGAGGAAGAGAGAGGAUAUCCAAAGGAAAACAUGAGGAUCACCCAUGUAAAAGGUAGGAAAUUGGGAGAAGGCUCAAGAGAGAG [salish99-ss2-059]	–	–	37.2	63.7
UUUCAUUACACGAAGGAUAUCGCUUUUCAGACAUGAGGAUCACCCAUGUAGUAGAUUUCCCUGUUCGAGAAGGUCGCGGGUGAAC [JR_SS002_Sub603]	–	–	51.5	70.4
